This note sets out measurements from PMC6128619, “Allosteric Activation Shifts the Rate-Limiting Step in a Short-Form ATP Phosphoribosyltransferase” (Biochemistry, 2018).

Like-named read-outs stand apart in the source and are kept apart here.

Series [1] has as its target T1, PaHisGS (short-form ATP phosphoribosyltransferase catalytic subunit) (Psychrobacter arcticus, UniProt Q4FQF7).
T1 construct: gene hisG
T1 sequence (Q4FQF7 1-231): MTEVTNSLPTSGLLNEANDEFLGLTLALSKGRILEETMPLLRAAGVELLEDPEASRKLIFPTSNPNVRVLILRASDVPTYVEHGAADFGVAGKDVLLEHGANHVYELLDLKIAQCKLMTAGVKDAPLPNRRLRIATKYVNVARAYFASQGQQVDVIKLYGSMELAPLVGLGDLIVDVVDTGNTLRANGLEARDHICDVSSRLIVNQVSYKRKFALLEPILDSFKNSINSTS
The experiment in a line: ITC (single-site model, […]); DSF Tm shift +[…] °C. The series is classed as binding.

For series [2], the target named is T1, PaHisGS (short-form ATP phosphoribosyltransferase catalytic subunit). The experiment in a line: steady-state inhibition kinetics, absorbance at […] nm (IC50 […]; Ki […] vs PRPP, […] vs ATP). It is filed as biochemical.
Series [3] shares this target. In words: […] NMR of product formation and steady-state kinetics (alternative substrate, with PRPP). The series is classed as biochemical.
Series [4] has the same target. The experiment in a line: steady-state kinetics, initial velocity patterns, […] NMR of turnover (no ITC or DSF signal without PRPP). It is filed as biochemical.
Substrate in series [5]: Nc1ncnc2c1ncn2[C@@H]1O[C@H](COP(=O)(O)OP(=O)(O)OP(=O)(O)O)[C@@H](O)[C@H]1O
In words: purified protein, by the assay type. Also noted: steady-state kinetics, spectrophotometric PRATP formation, substrate saturation fitted for KM. The protocol: (§1) For a quantitative comparison of the reactions with ATP and ADP, steady-state kinetic analysis of the reaction with either substrate was carried out (Figure 4) and kinetic parameters are summarized in Table S3. […] Replacement of Mg^2+ by Mn^2+ is a common strategy in enzymology,[36] having been employed to uncover rate-limiting steps in reactions involving stabilization of phosphate groups.[37] HisGL ATPPRTs have been reported to have their activities either unaltered or decreased by changing the divalent metal in the reaction from the physiological Mg^2+ to Mn^2+, but no mechanistic inference has been drawn.[17],[38] […] Mn^2+ led to 2.6- and 11-fold increases in PaHisGSkcat and kcat/KM^ATP, respectively, as compared with Mg^2+. The change in kcat/KM^ATP was driven in large part by a reduction in KM^ATP. LC-MS analysis of the PaHisGS reaction with Mn^2+ confirmed the same product, PRATP, was being formed (Figure S5). Kinetic and DSF data were analyzed by the nonlinear regression function of SigmaPlot 13 (SPSS Inc.). Data points and error bars in graphs are represented as mean ± standard error, and kinetic and equilibrium constants are presented as mean ± fitting error. Initial rate data with varying concentrations of PaHisZ were fitted to eq 1. The concentration of PaATPPRT at any concentration of PaHisGS and PaHisZ was calculated according to eq 2. Substrate saturation data were fitted to eq 3. Inhibition data at fixed substrate concentrations were fitted to eq 4, and competitive inhibition data were fitted to eq 5. Initial velocity patterns were fitted to eq 6, and pre-steady-state kinetics under multiple-turnover conditions was fitted to eq 7. In eqs 1–7, v is the initial rate, Vmax is the maximal velocity, G is the concentration of PaHisGS, Z is the concentration of PaHisZ, KD is the equilibrium dissociation constant, PaATPPRT is the concentration of PaHisGS-PaHisZ complex, S is the concentration of the varying substrate, kcat is the steady-state turnover number, KM is the apparent Michaelis constant, ET is total enzyme concentration, vi is the initial rate in the presence of inhibitor, IC50 is the half-maximal inhibitory concentration, Ki is the inhibitor dissociation constant, A and B are the first and second substrates to bind to the enzyme, respectively, Ka and Kb are their respective Michaelis constants, Kia is the apparent dissociation constant for the complex between enzyme and substrate A when the concentration of B approaches zero, t is time, P(t) is product concentration at time t, A0 is the amplitude of the burst phase, and kburst is the first-order rate constant of product formation in the burst phase. DSF thermal denaturation data were fitted to eq 8,[32] where FU is fraction unfolded, T is the temperature in °C, Tm is the melting temperature, c is the slope of the transition region, and LL and UL are folded and unfolded baselines, respectively. [drawing 1] 1 [drawing 2] 2 [drawing 3] 3 [drawing 4] 4 [drawing 5] 5 [drawing 6] 6 [drawing 7] 7 [drawing 8] 8

Substrate in series [6]: O=P(O)(O)OC[C@H]1O[C@H](OP(=O)(O)OP(=O)(O)O)[C@H](O)[C@@H]1O
In words: purified protein, by the assay type. Also noted: steady-state kinetics, spectrophotometric PRATP formation, substrate saturation fitted for KM. The protocol: as §1

Substrate in series [7]: Nc1ncnc2c1ncn2[C@@H]1O[C@H](COP(=O)(O)OP(=O)(O)OP(=O)(O)O)[C@@H](O)[C@H]1O
The experiment in a line: purified protein, by the assay type. Also on record: steady-state substrate saturation kinetics with Mg2+, Michaelis-Menten fit. An excerpt: (§2) Replacement of Mg^2+ by Mn^2+ is a common strategy in enzymology,[36] having been employed to uncover rate-limiting steps in reactions involving stabilization of phosphate groups.[37] HisGL ATPPRTs have been reported to have their activities either unaltered or decreased by changing the divalent metal in the reaction from the physiological Mg^2+ to Mn^2+, but no mechanistic inference has been drawn.[17],[38] […] Mn^2+ led to 2.6- and 11-fold increases in PaHisGSkcat and kcat/KM^ATP, respectively, as compared with Mg^2+. The change in kcat/KM^ATP was driven in large part by a reduction in KM^ATP. LC-MS analysis of the PaHisGS reaction with Mn^2+ confirmed the same product, PRATP, was being formed (Figure S5).  Figure 5 Steady-state kinetics with Mg^2+ (green) and Mn^2+ (blue). Saturation curves varying either PRPP or ATP concentration with saturating concentration of the cosubstrate for (A and B) PaHisGS and (C and D) PaATPPRT. Data points are mean ± SE, and lines are data fitting to eq 3. Kinetic and DSF data were analyzed by the nonlinear regression function of SigmaPlot 13 (SPSS Inc.). Data points and error bars in graphs are represented as mean ± standard error, and kinetic and equilibrium constants are presented as mean ± fitting error. Initial rate data with varying concentrations of PaHisZ were fitted to eq 1. The concentration of PaATPPRT at any concentration of PaHisGS and PaHisZ was calculated according to eq 2. Substrate saturation data were fitted to eq 3. Inhibition data at fixed substrate concentrations were fitted to eq 4, and competitive inhibition data were fitted to eq 5. Initial velocity patterns were fitted to eq 6, and pre-steady-state kinetics under multiple-turnover conditions was fitted to eq 7. In eqs 1–7, v is the initial rate, Vmax is the maximal velocity, G is the concentration of PaHisGS, Z is the concentration of PaHisZ, KD is the equilibrium dissociation constant, PaATPPRT is the concentration of PaHisGS-PaHisZ complex, S is the concentration of the varying substrate, kcat is the steady-state turnover number, KM is the apparent Michaelis constant, ET is total enzyme concentration, vi is the initial rate in the presence of inhibitor, IC50 is the half-maximal inhibitory concentration, Ki is the inhibitor dissociation constant, A and B are the first and second substrates to bind to the enzyme, respectively, Ka and Kb are their respective Michaelis constants, Kia is the apparent dissociation constant for the complex between enzyme and substrate A when the concentration of B approaches zero, t is time, P(t) is product concentration at time t, A0 is the amplitude of the burst phase, and kburst is the first-order rate constant of product formation in the burst phase. DSF thermal denaturation data were fitted to eq 8,[32] where FU is fraction unfolded, T is the temperature in °C, Tm is the melting temperature, c is the slope of the transition region, and LL and UL are folded and unfolded baselines, respectively. [drawing 1] 1 [drawing 2] 2 [drawing 3] 3 [drawing 4] 4 [drawing 5] 5 [drawing 6] 6 [drawing 7] 7 [drawing 8] 8

Substrate in series [8]: O=P(O)(O)OC[C@H]1O[C@H](OP(=O)(O)OP(=O)(O)O)[C@H](O)[C@@H]1O
In words: purified protein, by the assay type. Also on record: steady-state substrate saturation kinetics with Mg2+, Michaelis-Menten fit.
Description: as §2

As usually defined, the Kd is a measure of binding affinity in units of concentration. With `O=P(O)(O)OC[C@H]1O[C@H](OP(=O)(O)OP(=O)(O)O)[C@H](O)[C@@H]1O` [PRPP], in series [1], the equilibrium dissociation constant (Kd) turned out to be 12 ± 2 µM.

As usually defined, the Ki is a dissociation constant, usually derived from enzyme kinetics or from competition with a known ligand. The low end stands for tighter binding, the high end for weaker binding. For the molecule `Nc1ncnc2c1ncn2[C@@H]1O[C@H](COP(=O)(O)O)[C@@H](O)[C@H]1O` [AMP], the inhibition constant (Ki) in series [2] worked out at 25 ± 5 µM.

In the case of `Nc1ncnc2c1ncn2[C@@H]1O[C@H](COP(=O)(O)OP(=O)(O)O)[C@@H](O)[C@H]1O` [ADP], the “31P NMR of product formation and steady-state kinetics (alternative substrate, w)” value in series [3] is recorded as “establishing that ADP can replace ATP as a substrate for PaHisGS”.

For `Nc1ncnc2c1ncn2[C@@H]1O[C@H](COP(=O)(O)OP(=O)(O)OP(=O)(O)O)[C@@H](O)[C@H]1O` [ATP], in series [4], the “steady-state kinetics, initial velocity patterns, 31P NMR of turnover (no ITC or)” value was “once saturated PaHisGS turns over ATP and ADP just as effectively”.

B1: PaATPPRT (Psychrobacter arcticus 273-4) (protein)
chain: T1 sequence (Q4FQF7 1-231)
notes: hetero-octamer of four HisGS and four HisZ
Broadly, the Km is the concentration of substrate that gives half-maximal velocity. Broadly, the kcat is the maximal rate divided by the concentration of active sites. A word on the kcat/Km: it is the second-order rate constant that governs catalysis at low substrate concentration. Take B1: the Km was 0.19 ± 0.03 mM in series [5], 0.28 ± 0.06 mM in series [6], 0.72 ± 0.09 mM in series [7] and 0.43 ± 0.06 mM in series [8]. Further, the kcat worked out at 2.1 ± 0.1 s⁻¹ in series [5], 2.1 ± 0.1 s⁻¹ in series [6], 2.7 ± 0.1 s⁻¹ in series [7] and 2.7 ± 0.1 s⁻¹ in series [8]. Besides, the kcat/Km in series [5] is 11100 ± 2000 M⁻¹ s⁻¹; in series [6], 7500 ± 2000 M⁻¹ s⁻¹; in series [7], 3800 ± 500 M⁻¹ s⁻¹; in series [8], 6000 ± 900 M⁻¹ s⁻¹.

B2: PaHisGS (short-form ATP phosphoribosyltransferase catalytic subunit) (Psychrobacter arcticus 273-4) (protein)
chain: T1 sequence (Q4FQF7 1-231)
Consider B2, for which, in series [5], the Km is given as 0.30 ± 0.05 mM, the kcat worked out at 0.39 ± 0.05 s⁻¹ and the catalytic efficiency (kcat/Km) stood at 1300 M⁻¹ s⁻¹. For the same molecule, in series [6], the Km came to 0.6 ± 0.2 mM, the kcat stood at 0.39 ± 0.05 s⁻¹ and the kcat/Km was 700 ± 200 M⁻¹ s⁻¹.
